For six molecules, EC50 results are on record in article PMC6990103 (2019).

Holding throughout (experiment): ELISA
On the technique in general: In an ELISA, binding on a coated surface is turned into a signal by an enzyme label.

The target in experiment [1] is nluc-NP612 fusion protein, SUDV (Sudan ebolavirus (SUDV), UniProt Q9QP77 612-738).
Experiment [2] has as its target recombinant SUDV Boniface 1976 NP (Sudan ebolavirus (SUDV) Boniface 1976, UniProt Q9QP77 1-738).
Experiment [3] concerns the target recombinant EBOV Kikwit 1995 NP (Zaire ebolavirus (EBOV) Kikwit 1995, UniProt O72142 1-739).
For experiment [4], the target named is nluc-NP612 fusion protein, EBOV (Zaire ebolavirus (EBOV), UniProt O72142 612-739).

B1: sdAb SB, biotinylated (from pecan126) (VHH)
VHH: QVKLQQSGGGSVQEGGSLRLSCASSGAFFRAGPMGWYRRAPGNERELVAGISRNGRTIYAPSLKDRFTISRDDDNNILYLQMSDLTPGDTAVYYCNLNVRTAVAGRNDYWGQGTQVTVSS
modifications: biotin (singly biotinylated)
By EC50 is commonly meant the concentration that produces a half-maximal response. In experiment [1], B1 had an EC50 of 635 nM.

B2: sdAb SB-gluc fusion (glucibody) (VHH)
VHH: QVKLQQSGGGSVQEGGSLRLSCASSGAFFRAGPMGWYRRAPGNERELVAGISRNGRTIYAPSLKDRFTISRDDDNNILYLQMSDLTPGDTAVYYCNLNVRTAVAGRNDYWGQGTQVTVSS
B2: the EC50 in experiment [2] was 37 nM.

B3: sdAb ZE-gluc fusion (glucibody) (VHH)
VHH: QVQLQESGGGLVQPGGSLRLSCTASGFTLAEYGVGWFRQAPGKERELVALIAVGGTTHSIDSVKGRFTISRDNMKNTVYLQMNSLNVEDTAVYYCNAYSSAYDRNYWGQGTQVTVSS
In the case of B3, the EC50 in experiment [3] amounted to 31 nM.

B4: sdAb ZE, biotinylated (from pecan126) (VHH)
VHH: QVQLQESGGGLVQPGGSLRLSCTASGFTLAEYGVGWFRQAPGKERELVALIAVGGTTHSIDSVKGRFTISRDNMKNTVYLQMNSLNVEDTAVYYCNAYSSAYDRNYWGQGTQVTVSS
modifications: biotin (singly biotinylated)
The molecule B4 came in with an EC50 in experiment [4] of 1030 nM.

B5: sdAb ZC-gluc fusion (glucibody) (VHH)
VHH: KVQLQQSGGGSVTPGGSLRLSCAASGSISDFAAMAWYRQAPGKERDWVGTIFSAGALLYAEPVKGRFTISRDNAKNTVYLQMNSLKPEDTAVYYCRLYAEAIYWGQGTQVTVSS
As to B5, the EC50 in experiment [3] was 13 nM.

B6: sdAb ZC, biotinylated (from pecan126) (VHH)
VHH: KVQLQQSGGGSVTPGGSLRLSCAASGSISDFAAMAWYRQAPGKERDWVGTIFSAGALLYAEPVKGRFTISRDNAKNTVYLQMNSLKPEDTAVYYCRLYAEAIYWGQGTQVTVSS
modifications: biotin (singly biotinylated)
For the molecule B6, in experiment [4], a half-maximal effect (EC50) was put at 186 nM.
